Key:
Assay in all cases: ELISA; sandwich ELISA: 10 ug each of rmMASP-3-PA and rmMASP-3-ALFA mixed, dialysed against TBS/10 mM EDTA 24 h at 4°C, then against TBS/5 mM CaCl2 24 h at 4°C; 0.14 uM of each, serially diluted in 20% Blocking One in TBS/Ca; captured on anti-PA tag antibody, 30 min room temperature; detected with HRP-conjugated anti-ALFA nanobody
Details in all cases: both partners purified
[1] = target: T1, H218A mutant recombinant mouse MASP-3 fused with PA-tag (mouse, UniProt P98064-2 25-733, H218A)
T1 construct: Made from the pCAG-Bsd PA tag-C/WT rmMASP-3 plasmid by site-directed mutagenesis; also called H218A rmMASP-3-PA; mutant rmMASP-3-PA; source: CHO cells, transfected, culture supernatant, purified (anti-PA tag antibody beads); not shown: PA tag (human podoplanin dodecapeptide), C-terminal, kept
T1 sequence (looked up): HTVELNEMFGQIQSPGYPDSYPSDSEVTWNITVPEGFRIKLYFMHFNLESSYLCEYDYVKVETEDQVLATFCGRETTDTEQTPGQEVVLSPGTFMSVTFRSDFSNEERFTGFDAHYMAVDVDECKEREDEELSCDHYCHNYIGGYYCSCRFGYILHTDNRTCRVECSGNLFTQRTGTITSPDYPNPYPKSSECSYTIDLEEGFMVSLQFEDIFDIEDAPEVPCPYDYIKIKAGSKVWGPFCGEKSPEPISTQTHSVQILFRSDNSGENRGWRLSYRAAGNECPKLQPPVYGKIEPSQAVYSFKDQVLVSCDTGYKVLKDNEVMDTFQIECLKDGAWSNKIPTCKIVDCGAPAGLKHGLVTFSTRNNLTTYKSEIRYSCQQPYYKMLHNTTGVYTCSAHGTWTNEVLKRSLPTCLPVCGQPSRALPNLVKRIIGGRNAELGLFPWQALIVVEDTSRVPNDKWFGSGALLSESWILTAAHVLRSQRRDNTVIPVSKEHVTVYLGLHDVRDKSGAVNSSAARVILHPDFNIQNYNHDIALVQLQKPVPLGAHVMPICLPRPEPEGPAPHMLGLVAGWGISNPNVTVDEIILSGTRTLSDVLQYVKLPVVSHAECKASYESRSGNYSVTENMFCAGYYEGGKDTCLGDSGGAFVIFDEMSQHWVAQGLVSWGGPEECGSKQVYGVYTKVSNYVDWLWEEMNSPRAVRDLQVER

[2] = target: T2, E49A mutant recombinant mouse MASP-3 fused with PA-tag (mouse, UniProt P98064-2 25-733, E49A)
T2 construct: Made from the pCAG-Bsd PA tag-C/WT rmMASP-3 plasmid by site-directed mutagenesis; also called E49A rmMASP-3-PA; mutant rmMASP-3-PA; source: CHO cells, transfected, culture supernatant, purified (anti-PA tag antibody beads); not shown: PA tag (human podoplanin dodecapeptide), C-terminal, kept
T2 sequence (looked up): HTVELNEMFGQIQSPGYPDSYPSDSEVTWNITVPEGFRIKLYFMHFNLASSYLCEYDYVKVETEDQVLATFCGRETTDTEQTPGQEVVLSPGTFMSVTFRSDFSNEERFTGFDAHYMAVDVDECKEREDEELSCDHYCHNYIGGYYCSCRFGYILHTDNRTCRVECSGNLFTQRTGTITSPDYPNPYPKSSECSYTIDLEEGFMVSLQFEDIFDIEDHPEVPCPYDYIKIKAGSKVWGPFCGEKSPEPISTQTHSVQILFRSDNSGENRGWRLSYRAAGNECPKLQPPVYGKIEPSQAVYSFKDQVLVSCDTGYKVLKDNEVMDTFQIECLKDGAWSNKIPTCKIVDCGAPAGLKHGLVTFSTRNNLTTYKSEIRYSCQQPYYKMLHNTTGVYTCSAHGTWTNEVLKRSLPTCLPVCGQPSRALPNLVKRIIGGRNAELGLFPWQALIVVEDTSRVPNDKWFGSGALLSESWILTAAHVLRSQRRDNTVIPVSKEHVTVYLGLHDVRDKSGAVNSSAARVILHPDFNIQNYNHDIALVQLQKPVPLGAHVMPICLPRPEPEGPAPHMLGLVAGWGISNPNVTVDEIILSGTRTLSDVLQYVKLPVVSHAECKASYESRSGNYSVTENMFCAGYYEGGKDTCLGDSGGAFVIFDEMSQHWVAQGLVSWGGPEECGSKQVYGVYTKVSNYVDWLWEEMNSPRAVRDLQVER

[3] = target: T3, Y225A mutant recombinant mouse MASP-3 fused with PA-tag (mouse, UniProt P98064-2 25-733, Y225A)
T3 construct: Made from the pCAG-Bsd PA tag-C/WT rmMASP-3 plasmid by site-directed mutagenesis; also called Y225A rmMASP-3-PA; mutant rmMASP-3-PA; source: CHO cells, transfected, culture supernatant, purified (anti-PA tag antibody beads); not shown: PA tag (human podoplanin dodecapeptide), C-terminal, kept
T3 sequence (looked up): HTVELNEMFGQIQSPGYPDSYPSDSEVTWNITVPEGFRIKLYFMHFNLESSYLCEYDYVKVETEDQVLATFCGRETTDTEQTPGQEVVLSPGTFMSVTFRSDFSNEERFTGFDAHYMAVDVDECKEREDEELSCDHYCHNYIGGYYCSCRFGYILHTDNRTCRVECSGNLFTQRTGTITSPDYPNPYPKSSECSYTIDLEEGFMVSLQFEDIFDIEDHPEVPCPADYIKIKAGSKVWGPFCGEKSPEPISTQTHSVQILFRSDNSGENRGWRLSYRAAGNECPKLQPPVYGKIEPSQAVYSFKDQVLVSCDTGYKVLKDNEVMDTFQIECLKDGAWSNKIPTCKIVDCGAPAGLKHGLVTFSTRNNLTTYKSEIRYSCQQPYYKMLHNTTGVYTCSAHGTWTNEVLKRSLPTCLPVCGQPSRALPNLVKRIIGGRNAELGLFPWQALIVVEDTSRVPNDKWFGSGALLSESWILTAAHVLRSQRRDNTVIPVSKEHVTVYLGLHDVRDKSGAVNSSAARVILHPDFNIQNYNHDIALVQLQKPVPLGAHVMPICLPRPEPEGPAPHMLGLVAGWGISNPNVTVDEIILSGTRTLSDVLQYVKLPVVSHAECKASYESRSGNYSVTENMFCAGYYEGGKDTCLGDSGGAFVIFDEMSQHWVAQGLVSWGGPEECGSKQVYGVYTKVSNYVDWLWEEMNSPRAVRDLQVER

[4] = target: T4, wild-type recombinant mouse MASP-3 fused with PA-tag (WT rmMASP-3-PA) (mouse, UniProt P98064-2 25-733)
T4 construct: Secreted from CHO cells, purified as a proenzyme of about 110 kDa; in the circulation partly cleaved into H-chain and L-chain (active form); also called WT-PA; source: CHO cells, transfected, culture supernatant, purified (anti-PA tag antibody beads); not shown: PA tag (human podoplanin dodecapeptide), C-terminal, kept
T4 sequence (looked up): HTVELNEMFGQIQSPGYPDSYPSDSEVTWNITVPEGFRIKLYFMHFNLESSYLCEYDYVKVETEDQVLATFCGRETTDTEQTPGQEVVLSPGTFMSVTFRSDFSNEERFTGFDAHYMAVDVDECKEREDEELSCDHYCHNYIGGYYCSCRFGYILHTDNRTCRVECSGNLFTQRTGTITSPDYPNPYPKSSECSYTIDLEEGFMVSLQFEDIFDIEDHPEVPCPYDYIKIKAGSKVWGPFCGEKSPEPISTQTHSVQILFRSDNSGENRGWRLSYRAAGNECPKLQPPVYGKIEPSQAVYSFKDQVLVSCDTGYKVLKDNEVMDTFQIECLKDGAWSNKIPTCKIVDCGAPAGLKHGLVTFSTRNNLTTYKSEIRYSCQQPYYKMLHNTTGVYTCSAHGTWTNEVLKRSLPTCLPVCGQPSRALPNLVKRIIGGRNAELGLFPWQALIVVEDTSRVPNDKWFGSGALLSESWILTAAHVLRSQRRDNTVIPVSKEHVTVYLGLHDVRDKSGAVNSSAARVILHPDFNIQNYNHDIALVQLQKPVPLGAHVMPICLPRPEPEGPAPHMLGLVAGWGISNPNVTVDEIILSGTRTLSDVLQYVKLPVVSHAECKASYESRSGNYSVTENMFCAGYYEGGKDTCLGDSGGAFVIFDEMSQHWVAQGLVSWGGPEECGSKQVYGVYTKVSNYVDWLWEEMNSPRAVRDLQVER

Measured: binding result

B1: wild-type recombinant mouse MASP-3 with ALFA tag (WT rmMASP-3-ALFA) (enzyme, UniProt P98064-2 25-733, looked up)
chain: HTVELNEMFGQIQSPGYPDSYPSDSEVTWNITVPEGFRIKLYFMHFNLESSYLCEYDYVKVETEDQVLATFCGRETTDTEQTPGQEVVLSPGTFMSVTFRSDFSNEERFTGFDAHYMAVDVDECKEREDEELSCDHYCHNYIGGYYCSCRFGYILHTDNRTCRVECSGNLFTQRTGTITSPDYPNPYPKSSECSYTIDLEEGFMVSLQFEDIFDIEDHPEVPCPYDYIKIKAGSKVWGPFCGEKSPEPISTQTHSVQILFRSDNSGENRGWRLSYRAAGNECPKLQPPVYGKIEPSQAVYSFKDQVLVSCDTGYKVLKDNEVMDTFQIECLKDGAWSNKIPTCKIVDCGAPAGLKHGLVTFSTRNNLTTYKSEIRYSCQQPYYKMLHNTTGVYTCSAHGTWTNEVLKRSLPTCLPVCGQPSRALPNLVKRIIGGRNAELGLFPWQALIVVEDTSRVPNDKWFGSGALLSESWILTAAHVLRSQRRDNTVIPVSKEHVTVYLGLHDVRDKSGAVNSSAARVILHPDFNIQNYNHDIALVQLQKPVPLGAHVMPICLPRPEPEGPAPHMLGLVAGWGISNPNVTVDEIILSGTRTLSDVLQYVKLPVVSHAECKASYESRSGNYSVTENMFCAGYYEGGKDTCLGDSGGAFVIFDEMSQHWVAQGLVSWGGPEECGSKQVYGVYTKVSNYVDWLWEEMNSPRAVRDLQVER
notes: The fragment was put into the pCAG-Bsd PA tag-C vector; also called WT-ALFA; source: CHO cells, transfected, culture supernatant, purified (ALFA Selector ST); not shown: ALFA tag, C-terminal, kept
binds: all assays above
